Laboratory results reported in patent US12679878B2, “CRF2 receptor agonists and their use in therapy” (SANOFI, priority 2020, dated 2026).
Starred links: 1 amine or outer side, 2 acyl side, 3 side chain; linkers in the order of their positions; H or OH if unused. Non-standard residues stand in square brackets, D forms with d. Groups on a side chain read outwards from the residue. No end group written: not given here. *: point of attachment. C18 diacid = O=C(O)CCCCCCCCCCCCCCCCC(=O)*; γGlu = O=C(O)[C@H](CCC(=O)[*:2])N[*:1]; Palmitoyl = CCCCCCCCCCCCCCCC(=O)*; AEEA = NCCOCCOCC(=O)O; Aib = CC(C)(N)C(=O)O

B1: SEQ ID NO: 121 (peptide)
peptide: IVLSLDVPIKLK([AEEA-AEEA-γGlu-C18 diacid])QILLKQERQKKQREKAEKNKQILAQV-NH2
modifications: N-terminus assumed
SMILES: CC[C@H](C)[C@H](N)C(=O)N[C@H](C(=O)N[C@@H](CC(C)C)C(=O)N[C@@H](CO)C(=O)N[C@@H](CC(C)C)C(=O)N[C@@H](CC(=O)O)C(=O)N[C@H](C(=O)N1CCC[C@H]1C(=O)N[C@H](C(=O)N[C@@H](CCCCN)C(=O)N[C@@H](CC(C)C)C(=O)N[C@@H](CCCCNC(=O)COCCOCCNC(=O)COCCOCCNC(=O)CC[C@H](NC(=O)CCCCCCCCCCCCCCCCC(=O)O)C(=O)O)C(=O)N[C@@H](CCC(N)=O)C(=O)N[C@H](C(=O)N[C@@H](CC(C)C)C(=O)N[C@@H](CC(C)C)C(=O)N[C@@H](CCCCN)C(=O)N[C@@H](CCC(N)=O)C(=O)N[C@@H](CCC(=O)O)C(=O)N[C@@H](CCCNC(=N)N)C(=O)N[C@@H](CCC(N)=O)C(=O)N[C@@H](CCCCN)C(=O)N[C@@H](CCCCN)C(=O)N[C@@H](CCC(N)=O)C(=O)N[C@@H](CCCNC(=N)N)C(=O)N[C@@H](CCC(=O)O)C(=O)N[C@@H](CCCCN)C(=O)N[C@@H](C)C(=O)N[C@@H](CCC(=O)O)C(=O)N[C@@H](CCCCN)C(=O)N[C@@H](CC(N)=O)C(=O)N[C@@H](CCCCN)C(=O)N[C@@H](CCC(N)=O)C(=O)N[C@H](C(=O)N[C@@H](CC(C)C)C(=O)N[C@@H](C)C(=O)N[C@@H](CCC(N)=O)C(=O)N[C@H](C(N)=O)C(C)C)[C@@H](C)CC)[C@@H](C)CC)[C@@H](C)CC)C(C)C)C(C)C
B2: SEQ ID NO: 122 (peptide)
peptide: IVLSLDVPIKLK([AEEA-AEEA-γGlu-C18 diacid])QILLKQERQKKQRQQAEKNKQILAQV-NH2
modifications: N-terminus assumed
SMILES: CC[C@H](C)[C@H](N)C(=O)N[C@H](C(=O)N[C@@H](CC(C)C)C(=O)N[C@@H](CO)C(=O)N[C@@H](CC(C)C)C(=O)N[C@@H](CC(=O)O)C(=O)N[C@H](C(=O)N1CCC[C@H]1C(=O)N[C@H](C(=O)N[C@@H](CCCCN)C(=O)N[C@@H](CC(C)C)C(=O)N[C@@H](CCCCNC(=O)COCCOCCNC(=O)COCCOCCNC(=O)CC[C@H](NC(=O)CCCCCCCCCCCCCCCCC(=O)O)C(=O)O)C(=O)N[C@@H](CCC(N)=O)C(=O)N[C@H](C(=O)N[C@@H](CC(C)C)C(=O)N[C@@H](CC(C)C)C(=O)N[C@@H](CCCCN)C(=O)N[C@@H](CCC(N)=O)C(=O)N[C@@H](CCC(=O)O)C(=O)N[C@@H](CCCNC(=N)N)C(=O)N[C@@H](CCC(N)=O)C(=O)N[C@@H](CCCCN)C(=O)N[C@@H](CCCCN)C(=O)N[C@@H](CCC(N)=O)C(=O)N[C@@H](CCCNC(=N)N)C(=O)N[C@@H](CCC(N)=O)C(=O)N[C@@H](CCC(N)=O)C(=O)N[C@@H](C)C(=O)N[C@@H](CCC(=O)O)C(=O)N[C@@H](CCCCN)C(=O)N[C@@H](CC(N)=O)C(=O)N[C@@H](CCCCN)C(=O)N[C@@H](CCC(N)=O)C(=O)N[C@H](C(=O)N[C@@H](CC(C)C)C(=O)N[C@@H](C)C(=O)N[C@@H](CCC(N)=O)C(=O)N[C@H](C(N)=O)C(C)C)[C@@H](C)CC)[C@@H](C)CC)[C@@H](C)CC)C(C)C)C(C)C
B3: SEQ ID NO: 123 (peptide)
peptide: IVLSLDVPIKLK([AEEA-AEEA-γGlu-C18 diacid])QILLEQARQK[Aib]QRAQAEKNKRILERV-NH2
modifications: N-terminus assumed
SMILES: CC[C@H](C)[C@H](N)C(=O)N[C@H](C(=O)N[C@@H](CC(C)C)C(=O)N[C@@H](CO)C(=O)N[C@@H](CC(C)C)C(=O)N[C@@H](CC(=O)O)C(=O)N[C@H](C(=O)N1CCC[C@H]1C(=O)N[C@H](C(=O)N[C@@H](CCCCN)C(=O)N[C@@H](CC(C)C)C(=O)N[C@@H](CCCCNC(=O)COCCOCCNC(=O)COCCOCCNC(=O)CC[C@H](NC(=O)CCCCCCCCCCCCCCCCC(=O)O)C(=O)O)C(=O)N[C@@H](CCC(N)=O)C(=O)N[C@H](C(=O)N[C@@H](CC(C)C)C(=O)N[C@@H](CC(C)C)C(=O)N[C@@H](CCC(=O)O)C(=O)N[C@@H](CCC(N)=O)C(=O)N[C@@H](C)C(=O)N[C@@H](CCCNC(=N)N)C(=O)N[C@@H](CCC(N)=O)C(=O)N[C@@H](CCCCN)C(=O)NC(C)(C)C(=O)N[C@@H](CCC(N)=O)C(=O)N[C@@H](CCCNC(=N)N)C(=O)N[C@@H](C)C(=O)N[C@@H](CCC(N)=O)C(=O)N[C@@H](C)C(=O)N[C@@H](CCC(=O)O)C(=O)N[C@@H](CCCCN)C(=O)N[C@@H](CC(N)=O)C(=O)N[C@@H](CCCCN)C(=O)N[C@@H](CCCNC(=N)N)C(=O)N[C@H](C(=O)N[C@@H](CC(C)C)C(=O)N[C@@H](CCC(=O)O)C(=O)N[C@@H](CCCNC(=N)N)C(=O)N[C@H](C(N)=O)C(C)C)[C@@H](C)CC)[C@@H](C)CC)[C@@H](C)CC)C(C)C)C(C)C
B4: SEQ ID NO: 12 (peptide)
peptide: FTLSLDVPTKIK([γGlu-Palmitoyl])QKLLKQEKQRKQKQQAKTNAKILARV-NH2
modifications: N-terminus assumed
SMILES: CCCCCCCCCCCCCCCC(=O)N[C@@H](CCC(=O)NCCCC[C@H](NC(=O)[C@@H](NC(=O)[C@H](CCCCN)NC(=O)[C@@H](NC(=O)[C@@H]1CCCN1C(=O)[C@@H](NC(=O)[C@H](CC(=O)O)NC(=O)[C@H](CC(C)C)NC(=O)[C@H](CO)NC(=O)[C@H](CC(C)C)NC(=O)[C@@H](NC(=O)[C@@H](N)Cc1ccccc1)[C@@H](C)O)C(C)C)[C@@H](C)O)[C@@H](C)CC)C(=O)N[C@@H](CCC(N)=O)C(=O)N[C@@H](CCCCN)C(=O)N[C@@H](CC(C)C)C(=O)N[C@@H](CC(C)C)C(=O)N[C@@H](CCCCN)C(=O)N[C@@H](CCC(N)=O)C(=O)N[C@@H](CCC(=O)O)C(=O)N[C@@H](CCCCN)C(=O)N[C@@H](CCC(N)=O)C(=O)N[C@@H](CCCNC(=N)N)C(=O)N[C@@H](CCCCN)C(=O)N[C@@H](CCC(N)=O)C(=O)N[C@@H](CCCCN)C(=O)N[C@@H](CCC(N)=O)C(=O)N[C@@H](CCC(N)=O)C(=O)N[C@@H](C)C(=O)N[C@@H](CCCCN)C(=O)N[C@H](C(=O)N[C@@H](CC(N)=O)C(=O)N[C@@H](C)C(=O)N[C@@H](CCCCN)C(=O)N[C@H](C(=O)N[C@@H](CC(C)C)C(=O)N[C@@H](C)C(=O)N[C@@H](CCCNC(=N)N)C(=O)N[C@H](C(N)=O)C(C)C)[C@@H](C)CC)[C@@H](C)O)C(=O)O
B5: SEQ ID NO: 124 (peptide)
peptide: IVLSLDVPIKLK([AEEA-AEEA-γGlu-C18 diacid])QILLKQARQK[Aib]QRAQAEKNKRILERV-NH2
modifications: N-terminus assumed
SMILES: CC[C@H](C)[C@H](N)C(=O)N[C@H](C(=O)N[C@@H](CC(C)C)C(=O)N[C@@H](CO)C(=O)N[C@@H](CC(C)C)C(=O)N[C@@H](CC(=O)O)C(=O)N[C@H](C(=O)N1CCC[C@H]1C(=O)N[C@H](C(=O)N[C@@H](CCCCN)C(=O)N[C@@H](CC(C)C)C(=O)N[C@@H](CCCCNC(=O)COCCOCCNC(=O)COCCOCCNC(=O)CC[C@H](NC(=O)CCCCCCCCCCCCCCCCC(=O)O)C(=O)O)C(=O)N[C@@H](CCC(N)=O)C(=O)N[C@H](C(=O)N[C@@H](CC(C)C)C(=O)N[C@@H](CC(C)C)C(=O)N[C@@H](CCCCN)C(=O)N[C@@H](CCC(N)=O)C(=O)N[C@@H](C)C(=O)N[C@@H](CCCNC(=N)N)C(=O)N[C@@H](CCC(N)=O)C(=O)N[C@@H](CCCCN)C(=O)NC(C)(C)C(=O)N[C@@H](CCC(N)=O)C(=O)N[C@@H](CCCNC(=N)N)C(=O)N[C@@H](C)C(=O)N[C@@H](CCC(N)=O)C(=O)N[C@@H](C)C(=O)N[C@@H](CCC(=O)O)C(=O)N[C@@H](CCCCN)C(=O)N[C@@H](CC(N)=O)C(=O)N[C@@H](CCCCN)C(=O)N[C@@H](CCCNC(=N)N)C(=O)N[C@H](C(=O)N[C@@H](CC(C)C)C(=O)N[C@@H](CCC(=O)O)C(=O)N[C@@H](CCCNC(=N)N)C(=O)N[C@H](C(N)=O)C(C)C)[C@@H](C)CC)[C@@H](C)CC)[C@@H](C)CC)C(C)C)C(C)C
B6: SEQ ID NO: 125 (peptide)
peptide: IVLSLDVPIKLK([AEEA-AEEA-γGlu-C18 diacid])QILLEQARQK[Aib]QREQAEKNKRILERV-NH2
modifications: N-terminus assumed
SMILES: CC[C@H](C)[C@H](N)C(=O)N[C@H](C(=O)N[C@@H](CC(C)C)C(=O)N[C@@H](CO)C(=O)N[C@@H](CC(C)C)C(=O)N[C@@H](CC(=O)O)C(=O)N[C@H](C(=O)N1CCC[C@H]1C(=O)N[C@H](C(=O)N[C@@H](CCCCN)C(=O)N[C@@H](CC(C)C)C(=O)N[C@@H](CCCCNC(=O)COCCOCCNC(=O)COCCOCCNC(=O)CC[C@H](NC(=O)CCCCCCCCCCCCCCCCC(=O)O)C(=O)O)C(=O)N[C@@H](CCC(N)=O)C(=O)N[C@H](C(=O)N[C@@H](CC(C)C)C(=O)N[C@@H](CC(C)C)C(=O)N[C@@H](CCC(=O)O)C(=O)N[C@@H](CCC(N)=O)C(=O)N[C@@H](C)C(=O)N[C@@H](CCCNC(=N)N)C(=O)N[C@@H](CCC(N)=O)C(=O)N[C@@H](CCCCN)C(=O)NC(C)(C)C(=O)N[C@@H](CCC(N)=O)C(=O)N[C@@H](CCCNC(=N)N)C(=O)N[C@@H](CCC(=O)O)C(=O)N[C@@H](CCC(N)=O)C(=O)N[C@@H](C)C(=O)N[C@@H](CCC(=O)O)C(=O)N[C@@H](CCCCN)C(=O)N[C@@H](CC(N)=O)C(=O)N[C@@H](CCCCN)C(=O)N[C@@H](CCCNC(=N)N)C(=O)N[C@H](C(=O)N[C@@H](CC(C)C)C(=O)N[C@@H](CCC(=O)O)C(=O)N[C@@H](CCCNC(=N)N)C(=O)N[C@H](C(N)=O)C(C)C)[C@@H](C)CC)[C@@H](C)CC)[C@@H](C)CC)C(C)C)C(C)C

biological target: human corticotropin-releasing factor 2α (CRF2 α receptor) (human), Q13324; test: cell-based or functional assay
Sequence (Q13324 20-411): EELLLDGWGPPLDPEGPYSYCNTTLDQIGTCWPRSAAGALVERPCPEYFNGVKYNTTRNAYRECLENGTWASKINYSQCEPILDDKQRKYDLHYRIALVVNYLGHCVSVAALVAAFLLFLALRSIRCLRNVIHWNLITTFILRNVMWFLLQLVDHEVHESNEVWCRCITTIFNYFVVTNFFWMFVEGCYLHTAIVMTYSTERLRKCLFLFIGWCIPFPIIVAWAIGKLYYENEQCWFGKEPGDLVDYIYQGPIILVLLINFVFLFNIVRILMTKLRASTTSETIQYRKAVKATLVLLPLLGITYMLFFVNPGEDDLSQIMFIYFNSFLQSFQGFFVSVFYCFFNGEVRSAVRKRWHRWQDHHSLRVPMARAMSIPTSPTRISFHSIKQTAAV

Row | Binder | EC50 [nM], 0% HSA | EC50 [nM], 0.1% HSA
1 | B1 | 0.73 nM | 41.3 nM
2 | B2 | 0.04 nM | 1.71 nM
3 | B3 | 0.33 nM | 9.74 nM
4 | B4 | 0.09 nM | 
5 | B5 | 0.11 nM | 4.37 nM
6 | B6 | 0.47 nM | 19.9 nM
